Reference: publication PMC3788737, “Structural Insights into Neutrophilic Migration Revealed by the Crystal Structure of the Chemokine Receptor CXCR2 in Complex with the First PDZ Domain of NHERF1” (PLoS ONE, 2013)

T1: NHERF1 PDZ1 domain (residues 11-94) (human, UniProt O14745 11-94)
T1 construct: Na+/H+ exchanger regulatory factor-1 (NHERF1), human, PDZ1 domain, residues 11-94; The PDZ1 part of the chimera m1, written on its own for the pair PDZ1 and CXCR2 peptide of the crystal structure; also called first PDZ domain of NHERF1; source: E. coli BL21 Codon Plus (DE3), purified, as part of the chimeric protein PDZ1-TSTTL; not shown: His6, N-terminal, cleaved; SUMO, N-terminal, cleaved
T1 sequence (looked up): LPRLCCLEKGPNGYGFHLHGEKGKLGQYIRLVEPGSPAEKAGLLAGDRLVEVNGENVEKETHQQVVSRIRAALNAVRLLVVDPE


Experiments:
[1] = target: T1, NHERF1 PDZ1 domain (residues 11-94); test: crystal structure; chimeric PDZ1(11-94)-TSTTL, hanging drop, 100 mM sodium acetate pH 4.6, 2.7 M sodium chloride, 20 °C; 1.16 Å; the tail of one molecule binds the neighbouring PDZ1; settings: both partners purified
[2] = target: the molecule itself; test: as above

binding result [1]	Binder	binding result [2]
binds	TSTTL (Interleukin 8 receptor, beta (CXCR2), human, residues 356-360 (C-terminus); The CXCR2 part of the chimera m1 (joined to residue 94 of PDZ1), written on its own for the pair of the crystal structure; also called CXCR2 pentapeptide; source: E. coli BL21 Codon Plus (DE3), purified, as the C-terminal extension of the chimeric protein PDZ1-TSTTL) [CXCR2 C-terminal peptide TSTTL (residues 356-360)]	
	chimeric protein of the NHERF1 PDZ1 domain (residues 11-94) fused at its C-terminus to the CXCR2 residues 356-360 (TSTTL) (other, human, Na+/H+ exchanger regulatory factor-1 (NHERF1), human, PDZ1 domain, residues 11-94; C-terminal extension that corresponds to residues 356-360 of human CXCR2; one molecule in the asymmetric unit; also called PDZ1-CXCR2; not shown: His6, N-terminal, cleaved; SUMO, N-terminal, cleaved) LPRLCCLEKGPNGYGFHLHGEKGKLGQYIRLVEPGSPAEKAGLLAGDRLVEVNGENVEKETHQQVVSRIRAALNAVRLLVVDPETSTTL	binds
